This data set can be described thus: FatA enzymatic kinetic parameters with oleoyl-CoA as substrate. The class given is biochemical. The following applies: Michaelis-Menten; for Km: read-out: Km (μM) - best fit. As for the experimental part:
For the determination of FatA enzymatic kinetic parameters with oleoyl-CoA as substrate, assays are carried out essentially as described above for the testing of inhibitor compounds but with some changes to the method as follows. Oleoyl CoA is omitted from the assay master mix and added as a separate component to achieve final concentration of 40 μM, 23.5 μM. 13.8 μM, 8.1 μM, 4.8 μM, 2.8 μM and 1.7 μM (i.e. 1.7× dilution scheme). The level of enzymatic activity is determined from the slope of the progress curve (initial linear rates) using assay values measured at 0, 20, 40, 60, 90 and 120 s after addition of the enzyme. Kinetic parameters are then calculated using the Michaelis-Menten model as implemented in GraphPad Prism software.
FatA variant enzymes were prepared from 1 L E coli grows and assays carried out to determine enzyme kinetics as described in Example 1.

The results in this text go back to patent US12173301B2, “Weed control methods and related compositions and plants” (Syngenta Crop Protection AG, priority 2019, dated 2024).

The Km is the concentration of substrate that gives half-maximal velocity.

B1: Y217L: Arabidopsis FatA acyl-ACP thioesterase variant, substitution Y217L relative to SEQ ID NO: 1 (protein, listed as Arabidopsis thaliana)
chain: MLKLSCNVTDSKLQRSLLFFSHSYRSDPVNFIRRRIVSCSQTKKTGLVPLRAVVSADQGSVVQGLATLADQLRLGSLTEDGLSYKEKFVVRSYEVGSNKTATVETIANLLQEVGCNHAQSVGFSTDGFATTTTMRKLHLIWVTARMHIEIYKYPAWGDVVEIETWCQSEGRIGTRRDWILKDSVTGEVTGRATSKWVMMNQDTRRLQKVSDDVRDELLVFCPQEPRLAFPEENNRSLKKIPKLEDPAQYSMIGLKPRRADLDMNQHVNNVTYIGWVLESIPQEIVDTHELQVITLDYRRECQQDDVVDSLTTTTSEIGGTNGSATSGTQGHNDSQFLHLLRLSGDGQEINRGTTLWRKKPSS
As to B1, the “kcat (s^−1) - best fit” value came out at 1.7 s⁻¹ and the Km came out at 4.7 µM.

B2: V121N: Arabidopsis FatA acyl-ACP thioesterase variant, substitution V121N relative to SEQ ID NO: 1 (protein, listed as Arabidopsis thaliana)
chain: MLKLSCNVTDSKLQRSLLFFSHSYRSDPVNFIRRRIVSCSQTKKTGLVPLRAVVSADQGSVVQGLATLADQLRLGSLTEDGLSYKEKFVVRSYEVGSNKTATVETIANLLQEVGCNHAQSNGFSTDGFATTTTMRKLHLIWVTARMHIEIYKYPAWGDVVEIETWCQSEGRIGTRRDWILKDSVTGEVTGRATSKWVMMNQDTRRLQKVSDDVRDEYLVFCPQEPRLAFPEENNRSLKKIPKLEDPAQYSMIGLKPRRADLDMNQHVNNVTYIGWVLESIPQEIVDTHELQVITLDYRRECQQDDVVDSLTTTTSEIGGTNGSATSGTQGHNDSQFLHLLRLSGDGQEINRGTTLWRKKPSS
Take B2: the “kcat (s^−1) - best fit” value was determined as 0.8 s⁻¹ and the Km turned out to be 7.1 µM.

B3: S168C: Arabidopsis FatA acyl-ACP thioesterase variant, substitution S168C relative to SEQ ID NO: 1 (protein, listed as Arabidopsis thaliana)
chain: MLKLSCNVTDSKLQRSLLFFSHSYRSDPVNFIRRRIVSCSQTKKTGLVPLRAVVSADQGSVVQGLATLADQLRLGSLTEDGLSYKEKFVVRSYEVGSNKTATVETIANLLQEVGCNHAQSVGFSTDGFATTTTMRKLHLIWVTARMHIEIYKYPAWGDVVEIETWCQCEGRIGTRRDWILKDSVTGEVTGRATSKWVMMNQDTRRLQKVSDDVRDEYLVFCPQEPRLAFPEENNRSLKKIPKLEDPAQYSMIGLKPRRADLDMNQHVNNVTYIGWVLESIPQEIVDTHELQVITLDYRRECQQDDVVDSLTTTTSEIGGTNGSATSGTQGHNDSQFLHLLRLSGDGQEINRGTTLWRKKPSS
As to B3, the “kcat (s^−1) - best fit” value turned out to be 1.2 s⁻¹ and the Km turned out to be 6.2 µM.

B4: F123C: Arabidopsis FatA acyl-ACP thioesterase variant, substitution F123C relative to SEQ ID NO: 1 (protein, listed as Arabidopsis thaliana)
chain: MLKLSCNVTDSKLQRSLLFFSHSYRSDPVNFIRRRIVSCSQTKKTGLVPLRAVVSADQGSVVQGLATLADQLRLGSLTEDGLSYKEKFVVRSYEVGSNKTATVETIANLLQEVGCNHAQSVGCSTDGFATTTTMRKLHLIWVTARMHIEIYKYPAWGDVVEIETWCQSEGRIGTRRDWILKDSVTGEVTGRATSKWVMMNQDTRRLQKVSDDVRDEYLVFCPQEPRLAFPEENNRSLKKIPKLEDPAQYSMIGLKPRRADLDMNQHVNNVTYIGWVLESIPQEIVDTHELQVITLDYRRECQQDDVVDSLTTTTSEIGGTNGSATSGTQGHNDSQFLHLLRLSGDGQEINRGTTLWRKKPSS
As to B4, the “kcat (s^−1) - best fit” value is 0.3 s⁻¹ and the Km worked out at 4.8 µM.

B5: G114S: Arabidopsis FatA acyl-ACP thioesterase variant, substitution G114S relative to SEQ ID NO: 1 (protein, listed as Arabidopsis thaliana)
chain: MLKLSCNVTDSKLQRSLLFFSHSYRSDPVNFIRRRIVSCSQTKKTGLVPLRAVVSADQGSVVQGLATLADQLRLGSLTEDGLSYKEKFVVRSYEVGSNKTATVETIANLLQEVSCNHAQSVGFSTDGFATTTTMRKLHLIWVTARMHIEIYKYPAWGDVVEIETWCQSEGRIGTRRDWILKDSVTGEVTGRATSKWVMMNQDTRRLQKVSDDVRDEYLVFCPQEPRLAFPEENNRSLKKIPKLEDPAQYSMIGLKPRRADLDMNQHVNNVTYIGWVLESIPQEIVDTHELQVITLDYRRECQQDDVVDSLTTTTSEIGGTNGSATSGTQGHNDSQFLHLLRLSGDGQEINRGTTLWRKKPSS
As to B5, the “kcat (s^−1) - best fit” value is 2.3 s⁻¹ and the Km is 2.8 µM.

B6: C221F: Arabidopsis FatA acyl-ACP thioesterase variant, substitution C221F relative to SEQ ID NO: 1 (protein, listed as Arabidopsis thaliana)
chain: MLKLSCNVTDSKLQRSLLFFSHSYRSDPVNFIRRRIVSCSQTKKTGLVPLRAVVSADQGSVVQGLATLADQLRLGSLTEDGLSYKEKFVVRSYEVGSNKTATVETIANLLQEVGCNHAQSVGFSTDGFATTTTMRKLHLIWVTARMHIEIYKYPAWGDVVEIETWCQSEGRIGTRRDWILKDSVTGEVTGRATSKWVMMNQDTRRLQKVSDDVRDEYLVFFPQEPRLAFPEENNRSLKKIPKLEDPAQYSMIGLKPRRADLDMNQHVNNVTYIGWVLESIPQEIVDTHELQVITLDYRRECQQDDVVDSLTTTTSEIGGTNGSATSGTQGHNDSQFLHLLRLSGDGQEINRGTTLWRKKPSS
Take B6: the “kcat (s^−1) - best fit” value was determined as 1.5 s⁻¹ and the Km came to 4.3 µM.

B7: N269Y: Arabidopsis FatA acyl-ACP thioesterase variant, substitution N269Y relative to SEQ ID NO: 1 (protein, listed as Arabidopsis thaliana)
chain: MLKLSCNVTDSKLQRSLLFFSHSYRSDPVNFIRRRIVSCSQTKKTGLVPLRAVVSADQGSVVQGLATLADQLRLGSLTEDGLSYKEKFVVRSYEVGSNKTATVETIANLLQEVGCNHAQSVGFSTDGFATTTTMRKLHLIWVTARMHIEIYKYPAWGDVVEIETWCQSEGRIGTRRDWILKDSVTGEVTGRATSKWVMMNQDTRRLQKVSDDVRDEYLVFCPQEPRLAFPEENNRSLKKIPKLEDPAQYSMIGLKPRRADLDMNQHVNYVTYIGWVLESIPQEIVDTHELQVITLDYRRECQQDDVVDSLTTTTSEIGGTNGSATSGTQGHNDSQFLHLLRLSGDGQEINRGTTLWRKKPSS
On to B7, for which the “kcat (s^−1) - best fit” value is 6.1 s⁻¹ and the Michaelis-Menten constant (Km) amounted to 4 µM.

B8: F123N: Arabidopsis FatA acyl-ACP thioesterase variant, substitution F123N relative to SEQ ID NO: 1 (protein, listed as Arabidopsis thaliana)
chain: MLKLSCNVTDSKLQRSLLFFSHSYRSDPVNFIRRRIVSCSQTKKTGLVPLRAVVSADQGSVVQGLATLADQLRLGSLTEDGLSYKEKFVVRSYEVGSNKTATVETIANLLQEVGCNHAQSVGNSTDGFATTTTMRKLHLIWVTARMHIEIYKYPAWGDVVEIETWCQSEGRIGTRRDWILKDSVTGEVTGRATSKWVMMNQDTRRLQKVSDDVRDEYLVFCPQEPRLAFPEENNRSLKKIPKLEDPAQYSMIGLKPRRADLDMNQHVNNVTYIGWVLESIPQEIVDTHELQVITLDYRRECQQDDVVDSLTTTTSEIGGTNGSATSGTQGHNDSQFLHLLRLSGDGQEINRGTTLWRKKPSS
As for B8, the “kcat (s^−1) - best fit” value amounted to 0.3 s⁻¹ and the Km came to 14.6 µM.

B9: L218C: Arabidopsis FatA acyl-ACP thioesterase variant, substitution L218C relative to SEQ ID NO: 1 (protein, listed as Arabidopsis thaliana)
chain: MLKLSCNVTDSKLQRSLLFFSHSYRSDPVNFIRRRIVSCSQTKKTGLVPLRAVVSADQGSVVQGLATLADQLRLGSLTEDGLSYKEKFVVRSYEVGSNKTATVETIANLLQEVGCNHAQSVGFSTDGFATTTTMRKLHLIWVTARMHIEIYKYPAWGDVVEIETWCQSEGRIGTRRDWILKDSVTGEVTGRATSKWVMMNQDTRRLQKVSDDVRDEYCVFCPQEPRLAFPEENNRSLKKIPKLEDPAQYSMIGLKPRRADLDMNQHVNNVTYIGWVLESIPQEIVDTHELQVITLDYRRECQQDDVVDSLTTTTSEIGGTNGSATSGTQGHNDSQFLHLLRLSGDGQEINRGTTLWRKKPSS
Take B9: the “kcat (s^−1) - best fit” value amounted to 1.1 s⁻¹ and the Km was determined as 0.8 µM.

B10: S168R: Arabidopsis FatA acyl-ACP thioesterase variant, substitution S168R relative to SEQ ID NO: 1 (protein, listed as Arabidopsis thaliana)
chain: MLKLSCNVTDSKLQRSLLFFSHSYRSDPVNFIRRRIVSCSQTKKTGLVPLRAVVSADQGSVVQGLATLADQLRLGSLTEDGLSYKEKFVVRSYEVGSNKTATVETIANLLQEVGCNHAQSVGFSTDGFATTTTMRKLHLIWVTARMHIEIYKYPAWGDVVEIETWCQREGRIGTRRDWILKDSVTGEVTGRATSKWVMMNQDTRRLQKVSDDVRDEYLVFCPQEPRLAFPEENNRSLKKIPKLEDPAQYSMIGLKPRRADLDMNQHVNNVTYIGWVLESIPQEIVDTHELQVITLDYRRECQQDDVVDSLTTTTSEIGGTNGSATSGTQGHNDSQFLHLLRLSGDGQEINRGTTLWRKKPSS
As for B10, the “kcat (s^−1) - best fit” value was 1.3 s⁻¹ and the Michaelis constant (Km) came to 3 µM.

B11: F220H: Arabidopsis FatA acyl-ACP thioesterase variant, substitution F220H relative to SEQ ID NO: 1 (protein, listed as Arabidopsis thaliana)
chain: MLKLSCNVTDSKLQRSLLFFSHSYRSDPVNFIRRRIVSCSQTKKTGLVPLRAVVSADQGSVVQGLATLADQLRLGSLTEDGLSYKEKFVVRSYEVGSNKTATVETIANLLQEVGCNHAQSVGFSTDGFATTTTMRKLHLIWVTARMHIEIYKYPAWGDVVEIETWCQSEGRIGTRRDWILKDSVTGEVTGRATSKWVMMNQDTRRLQKVSDDVRDEYLVHCPQEPRLAFPEENNRSLKKIPKLEDPAQYSMIGLKPRRADLDMNQHVNNVTYIGWVLESIPQEIVDTHELQVITLDYRRECQQDDVVDSLTTTTSEIGGTNGSATSGTQGHNDSQFLHLLRLSGDGQEINRGTTLWRKKPSS
Turning to B11, the “kcat (s^−1) - best fit” value came out at 2.0 s⁻¹ and the Km is 3.2 µM.
